Experimental data as given in article PMC11297322, “MEILB2-BRME1 forms a V-shaped DNA clamp upon BRCA2-binding in meiotic recombination” (Nature Communications, 2023).

Columns and labels:
[1] = target: T1, BRCA2MBD;MEILB2 (22-338);BRME1MBD (Mus musculus;Mus musculus;Mus musculus) (UniProt P97929+Q9D4G2+Q6DIA7); experiment: EMSA; settings: EMSA: 20 mM HEPES pH 7.5, 325 mM KCl, 60 min room temperature; 0.4% agarose, 0.5x TBE pH 8.0, 4 C; 50 uM DNA per bp/base (qualitative). Pulldown: 20 mM HEPES …
T1 sequence 1: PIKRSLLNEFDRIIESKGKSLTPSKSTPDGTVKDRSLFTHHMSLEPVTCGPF
T1 sequence 2: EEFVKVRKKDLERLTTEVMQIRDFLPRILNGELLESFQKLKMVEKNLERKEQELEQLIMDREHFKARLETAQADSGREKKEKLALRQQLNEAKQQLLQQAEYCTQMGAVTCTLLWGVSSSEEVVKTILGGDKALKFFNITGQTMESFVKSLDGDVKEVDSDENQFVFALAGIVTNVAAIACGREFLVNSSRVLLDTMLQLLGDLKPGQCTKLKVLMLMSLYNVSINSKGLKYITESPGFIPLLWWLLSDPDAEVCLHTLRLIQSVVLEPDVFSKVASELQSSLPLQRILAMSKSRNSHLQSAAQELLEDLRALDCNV
T1 sequence 3: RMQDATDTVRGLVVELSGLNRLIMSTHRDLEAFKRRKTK

[2] = target: T2, BRCA2MBD;MEILB2 K26E;BRME1MBD K26E (Mus musculus;Mus musculus;Mus musculus) (UniProt P97929+Q9D4G2+Q6DIA7); experiment: EMSA; settings: EMSA: 20 mM HEPES pH 7.5, 325 mM KCl, 60 min room temperature; 0.4% agarose, 0.5x TBE pH 8.0, 4 C; 50 uM DNA per bp/base (qualitative). Pulldown: 20 mM HEPES …
T2 sequence 1: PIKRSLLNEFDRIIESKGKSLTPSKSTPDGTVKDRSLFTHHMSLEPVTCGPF
T2 sequence 2: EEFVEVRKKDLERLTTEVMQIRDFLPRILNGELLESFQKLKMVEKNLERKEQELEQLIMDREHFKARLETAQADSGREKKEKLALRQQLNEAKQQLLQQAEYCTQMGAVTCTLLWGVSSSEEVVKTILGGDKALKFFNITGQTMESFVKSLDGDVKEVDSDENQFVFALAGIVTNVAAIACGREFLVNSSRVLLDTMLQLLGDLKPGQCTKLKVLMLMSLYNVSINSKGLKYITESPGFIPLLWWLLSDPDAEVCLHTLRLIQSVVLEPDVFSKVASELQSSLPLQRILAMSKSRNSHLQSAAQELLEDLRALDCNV
T2 sequence 3: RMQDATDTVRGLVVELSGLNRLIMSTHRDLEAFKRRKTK

MEILB2 (22-338);BRME1MBD [3] = target: T3, MEILB2 (22-338);BRME1MBD (Mus musculus;Mus musculus, UniProt Q9D4G2;Q6DIA7 22-338;540-578, |); experiment: EMSA; apparent Kd, Hill n = 3; 2:2 complex concentration; 50 nM DNA; EMSA: 20 mM HEPES pH 7.5, 325 mM KCl, 60 min room temperature; 0.4% agarose, 0.5x TBE pH 8.0, 4 C; 50 uM DNA per bp/base (qualitative). Pulldown: 20 mM HEPES pH 7.5, 150 mM KCl, 10% glycerol, room temperature; settings: protein: recombinant;recombinant, tags: His6-MBP tag, TEV-cleaved;His6 tag, chain copies: 2;2, label: FAM, blunt
T3 sequence 1: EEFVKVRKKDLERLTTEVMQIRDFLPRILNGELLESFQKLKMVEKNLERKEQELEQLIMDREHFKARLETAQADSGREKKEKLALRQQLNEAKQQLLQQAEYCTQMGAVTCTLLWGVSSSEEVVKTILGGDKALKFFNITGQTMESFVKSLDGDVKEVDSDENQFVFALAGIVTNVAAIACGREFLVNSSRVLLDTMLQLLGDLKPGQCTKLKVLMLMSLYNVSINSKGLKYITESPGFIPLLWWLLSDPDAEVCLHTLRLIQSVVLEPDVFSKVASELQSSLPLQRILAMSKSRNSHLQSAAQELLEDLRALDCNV
T3 sequence 2: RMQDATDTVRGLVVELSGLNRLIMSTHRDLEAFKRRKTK

[4] = target: T4, BRCA2MBD;MEILB2 (22-338);BRME1MBD (Mus musculus;Mus musculus;Mus musculus, UniProt P97929;Q9D4G2;Q6DIA7 2232-2283;22-338;540-578, ||); experiment: EMSA; apparent Kd, Hill n = 4; 2:4:4 complex; 50 nM DNA; EMSA: 20 mM HEPES pH 7.5, 325 mM KCl, 60 min room temperature; 0.4% agarose, 0.5x TBE pH 8.0, 4 C; 50 uM DNA per bp/base (qualitative). Pulldown: 20 mM HEPES pH 7.5, 150 mM KCl, 10% glycerol, room temperature; settings: protein: recombinant;recombinant;recombinant, tags: MBP tag, TEV-cleaved;His6-MBP tag, chain copies: 2;4;4, label: FAM, blunt
T4 sequence 1: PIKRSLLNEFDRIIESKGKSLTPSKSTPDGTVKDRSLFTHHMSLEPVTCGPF
T4 sequence 2: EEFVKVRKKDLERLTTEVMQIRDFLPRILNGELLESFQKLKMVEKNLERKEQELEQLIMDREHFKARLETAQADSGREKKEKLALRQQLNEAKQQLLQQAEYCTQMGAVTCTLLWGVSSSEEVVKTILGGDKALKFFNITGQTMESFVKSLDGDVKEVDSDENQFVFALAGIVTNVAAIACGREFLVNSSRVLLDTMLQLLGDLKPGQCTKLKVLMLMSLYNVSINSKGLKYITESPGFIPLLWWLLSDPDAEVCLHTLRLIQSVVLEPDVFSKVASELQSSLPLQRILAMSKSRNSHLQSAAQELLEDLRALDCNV
T4 sequence 3: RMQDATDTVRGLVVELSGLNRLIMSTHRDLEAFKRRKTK

[5] = target: T5, BRCA2MBD;MEILB2 K26E;BRME1MBD (Mus musculus;Mus musculus;Mus musculus, UniProt P97929;Q9D4G2;Q6DIA7 2232-2283;22-338;540-578, |K26E|); experiment: EMSA; EMSA: 20 mM HEPES pH 7.5, 325 mM KCl, 60 min room temperature; 0.4% agarose, 0.5x TBE pH 8.0, 4 C; 50 uM DNA per bp/base (qualitative). Pulldown: 20 mM HEPES pH 7.5, 150 mM KCl, 10% glycerol, room temperature; settings: protein: recombinant;recombinant;recombinant, tags: MBP tag, TEV-cleaved;His6-MBP tag, chain copies: 2;4;4, blunt
T5 sequence 1: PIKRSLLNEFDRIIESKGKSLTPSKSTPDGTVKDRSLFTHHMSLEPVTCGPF
T5 sequence 2: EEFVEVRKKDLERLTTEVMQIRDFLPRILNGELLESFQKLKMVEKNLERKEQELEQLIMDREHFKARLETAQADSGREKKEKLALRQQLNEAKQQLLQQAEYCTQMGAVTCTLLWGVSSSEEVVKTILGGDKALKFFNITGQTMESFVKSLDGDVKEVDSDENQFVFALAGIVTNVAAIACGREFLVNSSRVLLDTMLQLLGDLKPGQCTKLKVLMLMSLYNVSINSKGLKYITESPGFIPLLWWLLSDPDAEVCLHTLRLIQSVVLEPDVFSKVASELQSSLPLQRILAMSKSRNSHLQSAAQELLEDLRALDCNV
T5 sequence 3: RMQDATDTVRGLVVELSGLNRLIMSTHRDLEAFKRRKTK

[6] = target: T6, MEILB2 (22-338);BRME1MBD R540E R549E (Mus musculus;Mus musculus, UniProt Q9D4G2;Q6DIA7 22-338;540-578, |R540E;R549E); experiment: pull-down; 150 mM KCl; EMSA: 20 mM HEPES pH 7.5, 325 mM KCl, 60 min room temperature; 0.4% agarose, 0.5x TBE pH 8.0, 4 C; 50 uM DNA per bp/base (qualitative). Pulldown: 20 mM HEPES pH 7.5, 150 mM KCl, 10% glycerol, room temperature; settings: protein: recombinant;recombinant, tags: His6-MBP tag, TEV-cleaved;His6 tag, chain copies: 2;2, blunt
T6 sequence 1: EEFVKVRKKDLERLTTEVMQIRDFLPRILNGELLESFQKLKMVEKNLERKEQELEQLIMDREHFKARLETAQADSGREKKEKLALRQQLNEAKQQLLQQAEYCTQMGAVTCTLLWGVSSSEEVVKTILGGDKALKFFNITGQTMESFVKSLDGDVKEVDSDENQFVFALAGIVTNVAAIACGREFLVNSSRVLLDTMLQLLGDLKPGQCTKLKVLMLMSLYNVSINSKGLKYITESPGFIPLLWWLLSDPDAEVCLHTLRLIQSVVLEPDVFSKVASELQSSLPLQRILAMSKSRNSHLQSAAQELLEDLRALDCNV
T6 sequence 2: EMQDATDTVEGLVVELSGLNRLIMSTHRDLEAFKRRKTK

[7] = target: T4, BRCA2MBD;MEILB2 (22-338);BRME1MBD; experiment: EMSA; EMSA: 20 mM HEPES pH 7.5, 325 mM KCl, 60 min room temperature; 0.4% agarose, 0.5x TBE pH 8.0, 4 C; 50 uM DNA per bp/base (qualitative). Pulldown: 20 mM HEPES pH 7.5, 150 mM KCl, 10% glycerol, room temperature; settings: protein: recombinant;recombinant;recombinant, tags: MBP tag, TEV-cleaved;His6-MBP tag
MEILB2 (22-338);BRME1MBD [8] = target: T3, MEILB2 (22-338);BRME1MBD; experiment: as above; settings: protein: recombinant;recombinant, tags: His6-MBP tag, TEV-cleaved;His6 tag, chain copies: 2;2, hairpin with 3' poly(dT) overhang
MEILB2 (22-338);BRME1MBD [9] = target: T3, MEILB2 (22-338);BRME1MBD; experiment: EMSA; apparent Kd, Hill n = 2; 2:2 complex concentration; 100 nM DNA; EMSA: 20 mM HEPES pH 7.5, 325 mM KCl, 60 min room temperature; 0.4% agarose, 0.5x TBE pH 8.0, 4 C; 50 uM DNA per bp/base (qualitative). Pulldown: 20 mM HEPES pH 7.5, 150 mM KCl, 10% glycerol, room temperature; settings: protein: recombinant;recombinant, tags: His6-MBP tag, TEV-cleaved;His6 tag, chain copies: 2;2, label: 5'-FAM

For “ATGGAATCTAAAGAAGAATTTGTTAAAGTCAGAAAGAAGGACCTGGAACGGCTGACGACGGAAGTGATGCAAATACGGGACTTCTTACCCAGAATACTAAATGGGGAGTTACTGGAAAGTTTCCAGAAATTAAAGATGGTAGAAAAAAACCTGGAAAGAAAAGAACAAGAATTAGAGCAACTGATAATGGACCGTGAACACTTCAAAGCCCGGCTAGAAACTGCACAGGCAGACAGTGGGAGGGAGAAGAAGGAGAAGTTGGCTCTTCGACAGCAGCTGAATGAGGCAAAACAGCAGCTC (double strand) [FAM-300 bp dsDNA]”, the Kd [1] was 310 nM and the Kd [2] was 300 nM.

B1: FAM-75 bp dsDNA (dsDNA)
DNA 1: ATGGAATCTAAAGAAGAATTTGTTAAAGTCAGAAAGAAGGACCTGGAACGGCTGACGACGGAAGTGATGCAAATA
DNA 2: TATTTGCATCACTTCCGTCGTCAGCCGTTCCAGGTCCTTCTTTCTGACTTTAACAAATTCTTCTTTAGATTCCAT
For B1, the Kd (MEILB2 (22-338);BRME1MBD [3]) was 520 ± 60 nM and the Kd [4] was 400 ± 40 nM.

B2: 75 bp dsDNA (dsDNA)
DNA 1: ATGGAATCTAAAGAAGAATTTGTTAAAGTCAGAAAGAAGGACCTGGAACGGCTGACGACGGAAGTGATGCAAATA
DNA 2: TATTTGCATCACTTCCGTCGTCAGCCGTTCCAGGTCCTTCTTTCTGACTTTAACAAATTCTTCTTTAGATTCCAT
B2: no binding [5].

B3: biotin-75 bp dsDNA (dsDNA)
DNA 1: ATGGAATCTAAAGAAGAATTTGTTAAAGTCAGAAAGAAGGACCTGGAACGGCTGACGACGGAAGTGATGCAAATA
DNA 2: TATTTGCATCACTTCCGTCGTCAGCCGTTCCAGGTCCTTCTTTCTGACTTTAACAAATTCTTCTTTAGATTCCAT
B3: no binding [6].

B4: ssDNA-dsDNA junction (5' hairpin-poly(dT) 3') (structured_DNA)
DNA: CCGGCCCGCGGTGTCCGCGGGCCGGTTTTTTTTTTTTTTTTTTTTTTTTTTTTTTTTTTTTTTTTTTTTTTTTTT
B4: binds ([7]; chain copies: 2;4;4, hairpin with 3' poly(dT) overhang); binds (MEILB2 (22-338);BRME1MBD [8]).

B5: 75 base FAM-poly(dT) (ssDNA)
DNA: TTTTTTTTTTTTTTTTTTTTTTTTTTTTTTTTTTTTTTTTTTTTTTTTTTTTTTTTTTTTTTTTTTTTTTTTTTT
In the case of B5, the Kd (MEILB2 (22-338);BRME1MBD [9]) is reported as 870 ± 70 nM and the binding result ([7]; chain copies: 2;4;4, label: 5'-FAM) is reported as “binds”.
